Data published in patent US10494417B2, “Peptide inhibitors of BCR-ABL oligomerization” (University of Utah Research Foundation, priority 2014, dated 2019).
“Also recorded” adds a separate entry of the source.

Legend:
Type in all cases: cell-based, mouse
[1] = system: Ba/F3 cells expressing BCR-ABL1E255V; assay: Colony forming assay of Ba/F3 BCR-ABL1 E255V cells; conditions: for colony formation, in words: CCmut3 gene delivery (transfection; b502 lentiviral infection) vs EV; for reduction in CFCs / colony forming ability: CCmut3 vs EV
Procedure: (§1) Following selection of transfected cells by cell sorting, viable cells were enumerated and seeded into methylcellulose as described previously (Dixon, A. S., et al. (2011) J. Biol. Chem. 286, 27751-27760). Briefly, mCherry-positive Ba/F3 cells were re-suspended in IMDM with 2% FBS (Stem Cell Technologies) at a concentration of 10,000 cells/mL. Three hundred microliters of this dilution was added to 3 mL of Methocult media (M3434—Ba/F3 p210 wild-type and mutant lines or M3234—Ba/F3 parental, Stem Cell Technologies). Approximately 1100 cells, or 1.2 mL, were seeded per dish in duplicate for each transfection. Colonies were counted 7 days later in an area of […] per dish.
(§2) Following selection of transfected cells by cell sorting, methylcellulose colony assays were performed by plating in 0.9% methylcellulose (Stem Cell Technologies; M3234 for Ba/F3 BCR-ABL1 native and mutant lines; M3434 for Ba/F3 parental cells; H4230 for CML patient samples). mCherry-positive Ba/F3 cells (1.1×10^3 cells/plate) or GFP-positive primary CML CD34+ cells (1×10^3 cells/plate) were seeded per dish in duplicate. In the case of CML patient samples, cells were plated in the presence of 1× StemSpan CC100 cytokine cocktail (StemCell Technologies). All cells were plated with or without the indicated TKI in three or more independent experiments. Plates were incubated at 37° C. in a 5% CO2 humidified incubator. Colonies were counted 7-14 days later in an area of 50 μm2 per dish using an inverted microscope.

[2] = system: Ba/F3 cells expressing native BCR-ABL1 (Ba/F3-p210); assay: Colony forming assay of transfected Ba/F3-p210 cells; conditions: CCmut3 alone vs EV or EGFP control
Procedure: Briefly, K562 or Ba/F3-p210 cells were transfected according to the protocol above. One day following transfection, 1.0×10^6 cells per transfection group were collected and re-suspended in sterile PBS. […] Finally, 1.1 mL of cell/methylcellulose mixture was seeded in duplicate and allowed to grow at 37° C. and 5% CO2 for 7 days. Colony formation was assessed by counting colonies in two 200 μm2 areas on the plate. Experiments were performed once in duplicate (n=1 in duplicate). All kit reagents and media were purchased from Stem Cell Technologies (Vancouver, BC, Canada).

[3] = system: Ba/F3 cells expressing BCR-ABL1E255V/T315I; assay: Colony forming assay of Ba/F3 BCR-ABL1 E255V/T315I cells; conditions: for colony formation, in words: CCmut3 gene delivery (transfection; b502 lentiviral infection) vs EV
Procedure: as §1, §2

[4] = system: parental Ba/F3 cells; assay: Annexin V/7-AAD apoptosis assay in transfected parental Ba/F3 cells; conditions: 72 h, CCmut3 vs EV
Procedure: (§3) For analysis of apoptosis and cell death, cells were pelleted and resuspended in Annexin V-binding buffer (BD Biosciences), stained with anti-Annexin V-APC (BD Biosciences or Life Technologies) and 7-AAD (BD Biosciences or Life Technologies) and analyzed on a BD FACSCanto flow cytometer. In addition to the APC and 7-AAD channels, GFP- and mCherry-positive cells were also recorded.
as §3, with “apoptosis and necrotic cell death,” for “apoptosis and cell death,”, “anti-Annexin V-APC and 7-AAD” for “anti-Annexin V-APC (BD Biosciences or Life Technologies) and 7-AAD”

[5] = system: Ba/F3-P210 cells; assay: Viability of transfected Ba/F3-p210 cells (trypan blue exclusion); conditions: 72 h following transfection, vs mCherry control, n=1
Procedure: Two days following cell passaging, 3.0×10^6 cells were collected by centrifugation at 750×g for 10 min for each transfection group. Following collection, 4 μg DNA was transfected into cells according to the Cell Line Nucleofector® Kit V protocol (program X-001) using the Amaxa Nuelcofector II. Following nucleofection, the DNA/cell mixture was added to 500 μL plain RPMI and incubated for 20 min. After incubation, the 500 μL cell/DNA/RPMI mixture was added to complete RPMI 1640 media and allowed to incubate at 37° C. for 72 h until analysis.
Forty-eight or 72 h following transfection, 100 μL of treated K562 or Ba/F3-p210 cells was mixed with 100 μL trypan blue solution (Life Technologies). The numbers of viable cells (those impermeable to the trypan blue dye) from four different quadrants in an INCYTO™ C-CHIP™ Neubauer hemacytometer (VWR International, Radnor, Pa., USA) were counted using a standard light microscope. Quadrant counts were then averaged to obtain the number of viable cells per mL. For experiments using the Helix2mut3 construct, counts were performed on one aliquot per transfection (n=3 in replicate). In experiments involving the CappedHelix2mut3 construct, counts were performed three times using separate 100 pt aliquots from one transfection (n=1 in triplicate).

B1: CCmut3: modified Bcr-Abl coiled-coil domain (residues 1-72) with mutations C38A, K39E, S41R, L45D, E48R, Q60E (protein)
chain: MVDPVGFAEAWKAQFPDSEPPRMELRSVGDIEQELERAEARIRRDEQRVNQERFRMIYLETLLAKEKKSYDR
For B1, the “colony formation, in words” value [1] was “significantly fewer colonies per unit area”, the “colony formation, in words” value ([1]; listed as CC^mut3) was “Inhibition in colony formation” and the “reduction in CFCs / colony forming ability” value [1] was over 10 fold. For the same molecule, the “reduction in CFCs / colony forming ability” value ([1]; listed as CC^mut3) was “more than 10 fold”, the “colony formation, in words” value [2] was “greatly reduced; also recorded: nearly eliminated colony forming ability” and the “colony formation, in words” value ([2]; listed as CC^mut3) was “greatly reduced; also recorded: nearly eliminated CFCs; also recorded: significantly lower than the EGFP control”. The “colony formation, in words” value [3] was “again reduced”, the “colony formation, in words” value ([3]; listed as CC^mut3) was “reduced; also recorded: Inhibition in colony formation” and the “reduction of CFCs / colony forming ability compared to EV” value ([3]; CCmut3 vs EV) was “approximately 50%”. For the same molecule, the “apoptosis, in words” value [4] was “no effect on parental Ba/F3 cells; also recorded: no effect on the parental cell line”, the “apoptosis, in words” value ([4]; listed as CC^mut3) was “not affected; also recorded: no effect on the parental cells” and the “proliferation/viability of Ba/F3-p210 cells” value [5] was “replicated to a similar extent”.
